The text below walks through data of PMC2373884.

The target in experiment [1] is cyclooxygenase-2 (COX-2), endogenous in human neutrophils (human (endogenous in neutrophils)) (UniProt P35354).
Experiment [2] shares this target. This is another data set of the same source.

UniProt P35354, sequence (P35354 18-604): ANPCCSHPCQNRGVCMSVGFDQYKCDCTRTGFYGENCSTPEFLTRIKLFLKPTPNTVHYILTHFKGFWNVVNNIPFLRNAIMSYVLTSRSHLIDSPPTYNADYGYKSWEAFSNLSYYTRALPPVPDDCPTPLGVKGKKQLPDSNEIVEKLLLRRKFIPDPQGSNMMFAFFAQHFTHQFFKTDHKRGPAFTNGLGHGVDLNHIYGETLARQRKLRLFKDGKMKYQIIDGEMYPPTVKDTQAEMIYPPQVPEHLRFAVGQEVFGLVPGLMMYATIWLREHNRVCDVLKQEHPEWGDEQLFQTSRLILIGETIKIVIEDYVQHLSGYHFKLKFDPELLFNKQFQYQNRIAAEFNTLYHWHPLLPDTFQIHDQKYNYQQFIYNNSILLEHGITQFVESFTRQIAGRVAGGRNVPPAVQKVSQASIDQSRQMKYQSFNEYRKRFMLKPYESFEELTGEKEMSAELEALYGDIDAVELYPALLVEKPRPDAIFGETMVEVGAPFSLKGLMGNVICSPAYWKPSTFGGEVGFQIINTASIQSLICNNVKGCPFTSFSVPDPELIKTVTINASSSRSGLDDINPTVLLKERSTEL

On to “human recombinant nucleobindin (hrNuc), full length (from UniProt Q02818 27-461) (natural protein)”, for which, in experiment [1], the PGE2 production (ELISA) from arachidonic acid (10 µM) by purified human recombinant COX-2 (1 U/sample, Cayman) with increasing amounts of hrNuc (fold over basal levels) was determined as 4. For the same substance, the PGE2 production (ELISA) from arachidonic acid (10 µM) by lysates of COX-2-expressing neutrophils with increasing quantities of hrNuc in experiment [2] was found to be 5 fold.
